The values below are quoted from earlier work in PMC2586657.

This series addresses alpha-factor (Saccharomyces cerevisiae) (UniProt P01149).

Turning to “alpha-factor receptor (from UniProt D6VTK4)”, the dissociation constant (Kd) was 5 nM.

Broadly, the Kd is a measure of binding affinity in units of concentration.
